Literature values in article PMC7600996.

Biological target: RseA (Escherichia coli) (UniProt P0AFX7)
Chain of UniProt P0AFX7 (P0AFX7 whole entry): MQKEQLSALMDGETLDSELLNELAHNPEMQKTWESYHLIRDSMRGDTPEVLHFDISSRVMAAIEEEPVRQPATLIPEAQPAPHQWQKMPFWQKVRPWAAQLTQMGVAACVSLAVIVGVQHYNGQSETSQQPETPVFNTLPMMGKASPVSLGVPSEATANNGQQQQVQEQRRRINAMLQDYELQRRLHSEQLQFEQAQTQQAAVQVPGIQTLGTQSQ

For RpoE (sigma E) (from UniProt P0AGB6), the Kd is listed as 0.2 nM.
